Data reported in patent US20260258128A1 (MUSTBIO, published 2026).
Numbering of substitutions follows the chain as printed.

B1: Protein complex of CD3-binding antibody variable region 1-Fc x PD-L1 antibody (bispecific antibody)
chain 1: EVQLVESGGGLVQPGGSLRLSCAASGFSFTGYTMNWVRQAPGKGLEWVALINPYKGVTTYADSVKGRFTISRDNSKNTAYLQMNSLRAEDTAVYYCARSGYYGDSDWYFDVWGQGTLVTVSSDIQMTQSPSSLSASVGDRVTITCRASQDIRNYLNWYQQKPGKAPKLLIYYTSRLESGVPSRFSGSGSGTDYTLTISSLQPEDFATYYCQQGNTLPWTFGQGTKVEIKRT
chain 2: EVQLLESGGGLVQPGGSLRLSCAASGFTFSSYIMMWVRQAPGKGLEWVSSIYPSGGITFYADTVKGRFTISRDNSKNTLYLQMNSLRAEDTAVYYCARIKLGTVTTVDYWGQGTLVTVSSASTKGPSVFPLAPSSKSTSGGTAALGCLVKDYFPEPVTVSWNSGALTSGVHTFPAVLQSSGLYSLSSVVTVPSSSLGTQTYICNVNHKPSNTKVDKKV
chain 3: QSALTQPASVSGSPGQSITISCTGTSSDVGGYNYVSWYQQHPGKAPKLMIYDVSNRPSGVSNRFSGSKSGNTASLTISGLQAEDEADYYCSSYTSSSTRVFGTGTKVTVLGQPKANPTVTLFPPSSEELQANKATLVCLISDFYPGAVTVAWKADGSPVKAGVETTKPSKQSNNKYAASSYLSLTPEQWKSHRSYSCQVTHEGSTVEKTVAPTECS
B2: Protein complex of CD3-binding antibody variable region 2-Fc x PD-L1 antibody (bispecific antibody)
scFv-Fc: EVQLVESGGGLVQPGGSLRLSCAASGFSFTGYTMNWVRQAPGKGLEWVALINPYKGVTTYADSVKGRFTISRDNSKNTLYLQMNSLRAEDTAVYYCARSGYYGDSDWYFDVWGQGTLVTVSSGGGGSGGGGSGGGGSDIQMTQSPSSLSASVGDRVTITCRASQDIRNYLNWYQQKPGKAPKLLIYYTSSLESGVPSRFSGSGSGTDYTLTISSLQPEDFATYYCQQGNTLPWTFGQGTKVEIKRTEPKSSDKTHTCPPCPAPEAAGGPSVFLFPPKPKDTLMISRTPEVTCVVVDVSHEDPEVKFNWYVDGVEVHNAKTKPREEQYNSTYRVVSVLTVLHQDWLNGKEYKCKVSNKALPAPIEKTISKAKGQPREPQVYTGPPSRDELTKNQVSLSCAVKGFYPSDIAVEWESNGQPENNYKTTPPVLDSDGSFFLVSKLTVDKSRWQQGNVFSCSVMHEALHNHYTQKSLSLSPGK
heavy: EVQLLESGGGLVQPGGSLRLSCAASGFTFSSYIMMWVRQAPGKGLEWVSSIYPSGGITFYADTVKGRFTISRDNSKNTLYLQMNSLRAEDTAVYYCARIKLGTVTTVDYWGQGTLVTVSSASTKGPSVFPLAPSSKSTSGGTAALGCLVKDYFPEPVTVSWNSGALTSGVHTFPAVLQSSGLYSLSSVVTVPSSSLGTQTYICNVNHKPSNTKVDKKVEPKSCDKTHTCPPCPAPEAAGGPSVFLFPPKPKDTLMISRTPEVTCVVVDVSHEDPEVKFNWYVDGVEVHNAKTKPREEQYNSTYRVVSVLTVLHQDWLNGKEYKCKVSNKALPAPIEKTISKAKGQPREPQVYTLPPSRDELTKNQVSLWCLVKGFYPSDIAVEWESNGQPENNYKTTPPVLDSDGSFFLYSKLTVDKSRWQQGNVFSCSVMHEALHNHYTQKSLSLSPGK
light: B1 chain 3
B3: Protein complex of CD3-binding antibody variable region 6-Fc x PD-L1 antibody (bispecific antibody)
chain 1: B1 chain 1 with R72D, A79L, R175S
chain 2: B1 chain 2
chain 3: B1 chain 3
B4: Protein complex of CD3-binding antibody variable region 7-Fc x PD-L1 antibody (bispecific antibody)
chain 1: B1 chain 1 with R72Q, A79L, R175S
chain 2: B1 chain 2
chain 3: B1 chain 3
B5: Protein complex of CD3-binding antibody variable region 4-Fc x PD-L1 antibody (bispecific antibody)
chain 1: B1 chain 1 with R72A, A79L, R175S
chain 2: B1 chain 2
chain 3: B1 chain 3
B6: Protein complex of CD3-binding antibody variable region 3-Fc x PD-L1 antibody (bispecific antibody)
scFv-Fc: B2 scFv-Fc with G44C, Q237C
heavy: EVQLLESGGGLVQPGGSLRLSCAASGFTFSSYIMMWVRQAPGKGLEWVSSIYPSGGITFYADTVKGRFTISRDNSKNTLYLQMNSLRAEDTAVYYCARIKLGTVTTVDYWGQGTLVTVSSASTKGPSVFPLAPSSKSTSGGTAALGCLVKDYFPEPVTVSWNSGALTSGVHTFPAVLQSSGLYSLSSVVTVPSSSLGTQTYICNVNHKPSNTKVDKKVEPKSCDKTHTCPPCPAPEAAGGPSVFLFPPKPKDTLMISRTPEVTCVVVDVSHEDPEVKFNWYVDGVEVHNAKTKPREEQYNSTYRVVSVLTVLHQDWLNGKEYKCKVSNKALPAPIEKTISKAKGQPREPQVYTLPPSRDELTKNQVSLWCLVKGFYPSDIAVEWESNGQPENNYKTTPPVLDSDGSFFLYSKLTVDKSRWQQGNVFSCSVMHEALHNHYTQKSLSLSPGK
light: B1 chain 3
B7: Protein complex of CD3-binding antibody variable region 5-Fc x PD-L1 antibody (bispecific antibody)
chain 1: B1 chain 1 with G44C, R72A, A79L, R175S, Q222C
chain 2: B1 chain 2
chain 3: B1 chain 3

biological target: T1, CD3 on T cells of human peripheral blood mononuclear cells (human, UniProt P07766 23-207); assay: cell-based or functional assay
T1 sequence (P07766 23-207): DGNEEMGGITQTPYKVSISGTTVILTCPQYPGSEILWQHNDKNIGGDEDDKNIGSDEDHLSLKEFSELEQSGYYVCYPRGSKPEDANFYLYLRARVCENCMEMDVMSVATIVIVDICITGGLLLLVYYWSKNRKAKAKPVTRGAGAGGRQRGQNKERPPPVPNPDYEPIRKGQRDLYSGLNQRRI

Binder | Death of cancer cells EC50 (MDA-MB-231 + human PBMC, flow cytometry) | Death of cancer cells Emax (%) | IFNγ release EC50 | IFNγ release Maximum concentration
B1 | 0.23 nM | 80% | 0.1 nM | 6.1 ng/mL
B2 | 0.05 nM | – | 2.5 nM | –
B3 | 3.5 nM | 68% | 16.4 nM | 5.1 ng/mL
B4 | 2.26 nM | 68% | 15.3 nM | 9.3 ng/mL
B5 | 0.18 nM | 79% | 31.2 nM | 2.6 ng/mL
B6 | 0.06 nM | – | 0.1 nM | –
B7 | 0.18 nM | 66% | 10 nM | 4.4 ng/mL

biological target: T1, CD3 on T cells of human peripheral …; assay: cell-based or functional assay; remark: another data set of the same source

Binder | fold reduction of the maximum cytokine release level compared to the CD3-binding monoclonal antibody
B6 | 10.5 fold

biological target: PD-L1 on human cells (MDA-MB-231, MCF-7, 293T) (human, UniProt Q9NZQ7 19-290); assay: cell-based or functional assay
Sequence (Q9NZQ7 19-290): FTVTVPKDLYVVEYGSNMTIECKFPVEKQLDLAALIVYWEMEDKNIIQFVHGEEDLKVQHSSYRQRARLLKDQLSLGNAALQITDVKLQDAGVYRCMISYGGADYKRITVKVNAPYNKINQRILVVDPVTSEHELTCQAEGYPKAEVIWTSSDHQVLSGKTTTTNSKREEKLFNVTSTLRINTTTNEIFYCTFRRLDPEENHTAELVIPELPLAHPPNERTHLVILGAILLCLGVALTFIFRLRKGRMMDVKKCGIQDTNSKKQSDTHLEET

Binder | Tumor lysis EC50, 293T (normal cells, low PD-L1 expression) + human PBMC | Tumor lysis EC50, MCF7 (low PD-L1 expression) + human PBMC | Tumor lysis EC50, MDA-MB-231 (high PD-L1 expression) + human PBMC
B2 | 0.0313 nM | 0.15 nM | 0.0945 nM
